# T1: Par complex (Drosophila melanogaster, UniProt O97111 1-351; A1Z9X0 1-606)
# T1 construct: atypical PKC (aPKC), Drosophila melanogaster, residues 1-606, from pCMV aPKC; also called Par-6/aPKC; intact Par complex
# T1 sequence (looked up) 1: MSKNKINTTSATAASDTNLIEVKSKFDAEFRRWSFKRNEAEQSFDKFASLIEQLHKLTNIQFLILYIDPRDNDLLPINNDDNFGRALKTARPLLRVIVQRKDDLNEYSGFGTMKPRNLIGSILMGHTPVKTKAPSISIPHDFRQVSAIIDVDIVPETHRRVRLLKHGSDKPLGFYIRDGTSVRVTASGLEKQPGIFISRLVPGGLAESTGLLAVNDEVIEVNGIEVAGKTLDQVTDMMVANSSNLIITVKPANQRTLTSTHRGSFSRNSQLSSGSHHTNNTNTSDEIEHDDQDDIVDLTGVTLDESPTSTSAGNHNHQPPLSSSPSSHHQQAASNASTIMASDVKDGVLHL
# T1 sequence (looked up) 2: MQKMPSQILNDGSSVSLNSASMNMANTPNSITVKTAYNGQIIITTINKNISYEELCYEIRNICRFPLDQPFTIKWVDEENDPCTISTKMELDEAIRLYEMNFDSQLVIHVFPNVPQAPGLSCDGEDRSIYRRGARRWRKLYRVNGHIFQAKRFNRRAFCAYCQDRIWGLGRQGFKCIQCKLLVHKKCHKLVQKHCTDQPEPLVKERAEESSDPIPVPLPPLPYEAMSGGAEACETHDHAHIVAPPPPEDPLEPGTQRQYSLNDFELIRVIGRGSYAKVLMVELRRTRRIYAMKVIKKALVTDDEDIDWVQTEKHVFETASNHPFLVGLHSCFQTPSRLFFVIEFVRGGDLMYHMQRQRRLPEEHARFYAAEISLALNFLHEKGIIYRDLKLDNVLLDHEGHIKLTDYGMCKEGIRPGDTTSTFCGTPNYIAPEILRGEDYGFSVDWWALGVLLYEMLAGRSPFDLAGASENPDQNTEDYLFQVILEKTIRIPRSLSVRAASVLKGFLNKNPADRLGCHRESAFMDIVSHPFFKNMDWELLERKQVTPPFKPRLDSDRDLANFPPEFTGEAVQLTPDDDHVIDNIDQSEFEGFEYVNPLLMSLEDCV
# B1: GST-Cdc42^Q61L (natural protein)
# chain: not shown
# notes: Cdc42, Drosophila melanogaster, residues 1-191 with Q61L, from pGEX; Nucleotide state is not described; Q61L is called constitutively active; also called GST-fused Cdc42Q61L; solid phase Cdc42^Q61L; source: E. coli BL21-DE3, lysate adsorbed to glutathione resin and washed; not shown: GST, N-terminal, kept
# How the values were obtained:
# Conditions in all cases: both partners purified
# Par complex [1] = molecular target: T1, Par complex; assay: pull-down; GST-fused protein on glutathione resin (from bacterial lysate, washed 4x); soluble purified proteins added, 60 min at room temperature; 20 mM Hepes pH 7.5, 100 mM NaCl, 5 mM MgCl2, 0.5% Tween-20, 1 mM DTT, 200 uM ATP; Coomassie-stained gel
# Par complex [2] = molecular target: T1, Par complex; assay: supernatant depletion; GST-Cdc42^Q61L on GSH resin (ligand), soluble Par complex (receptor), 60 min at room temperature; 20 mM Hepes pH 7.5, 100 mM NaCl, 5 mM MgCl2, 0.5% Tween-20, 1 mM DTT, 200 uM ATP; KD from the fraction depleted at one dilution, in sextuplicate
# Par complex [3] = molecular target: T1, Par complex; assay: supernatant depletion; MBP-Par-3 PDZ1-APM on amylose resin (ligand), soluble Par complex (receptor), 10 min at room temperature; 20 mM Hepes pH 7.5, 100 mM NaCl, 5 mM MgCl2, 0.5% Tween-20, 1 mM DTT, 200 uM ATP; KD from the fraction depleted at one dilution, in sextuplicate
# GST-Cdc42^Q61L = molecular target: B1; assay: supernatant depletion; Cdc42 with Par-6 CRIB-PDZ (Figure S1); the text does not say which of the two was on the resin; buffer as for the other supernatant depletion assays
# GST-Cdc42^Q61L, sequence (P40793 whole entry Q61L): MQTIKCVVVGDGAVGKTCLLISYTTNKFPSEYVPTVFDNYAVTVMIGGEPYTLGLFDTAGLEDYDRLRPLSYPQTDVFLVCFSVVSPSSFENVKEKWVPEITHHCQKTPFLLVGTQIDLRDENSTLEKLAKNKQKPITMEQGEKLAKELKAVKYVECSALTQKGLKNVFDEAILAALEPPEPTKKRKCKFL
binding result (Par complex [1]),Binder,other results
binds,"His-Par-3 PDZ2 (domain or fragment, Drosophila melanogaster, UniProt O96782 444-533, looked up, Par-3 (Bazooka), Drosophila melanogaster, PDZ2, residues 444-533, from pET19; source: E. coli BL21-DE3, His-purified) QIMLKKGPNGLGFSVTTRDNPAGAHCPIYIKNILPRGAAIEDGRLKPGDRLLEVDGTPMTGKTQTDVVAILRGMPAGATVRIVVSRQQEL",
,B1,Kd (Par complex [2]): 5400 nM
binds,"His-Par-3 BR-PDZ2 (domain or fragment, Drosophila melanogaster, UniProt O96782 426-533, looked up, Par-3 (Bazooka), Drosophila melanogaster, basic region and PDZ2, residues 426-533, from pET19; source: E. coli BL21-DE3, His-purified) PVGTSLQVANTRKLGRKIQIMLKKGPNGLGFSVTTRDNPAGAHCPIYIKNILPRGAAIEDGRLKPGDRLLEVDGTPMTGKTQTDVVAILRGMPAGATVRIVVSRQQEL",
,"MBP-Par-3 PDZ1-APM (domain or fragment, Drosophila melanogaster, UniProt O96782 309-987, looked up, Par-3 (Bazooka), Drosophila melanogaster, residues 309-987 (PDZ1 to the aPKC phosphorylation motif), from pMAL Par-3 309-987-His; also called MBP-Par-3 PDZ1-APM-His; Bazooka; source: E. coli BL21-DE3; His-purified (soluble phase) or lysate adsorbed to amylose resin and washed (solid phase); not shown: MBP, N-terminal, kept) DGEMLLIINEYGSPLGLTALPDKEHGGGLLVQHVEPGSRAERGQLRRDDRILEINGIKLIGLTESQVQEQLRRALESSELRVRVLRGDRNRRQQRDSKVADMVEVATVSPTRKPHAAPVGTSLQVANTRKLGRKIQIMLKKGPNGLGFSVTTRDNPAGAHCPIYIKNILPRGAAIEDGRLKPGDRLLEVDGTPMTGKTQTDVVAILRGMPAGATVRIVVSRQQELAEQADQPAEKSAGVAVAPSVAPPAVPAAAAPAPPIPVQKSSSARSLFTHQQQSQLNESQHFIDAGSESAASNDSLPPSSNSWHSREELTLHIPVHDTEKAGLGVSVKGKTCSNLNASGSSASSGSNGLMKHDGDLGIFVKNVIHGGAASRDGRLRMNDQLLSVNGVSLRGQNNAEAMETLRRAMVNTPGKHPGTITLLVGRKILRSASSSDILDHSNSHSHSHSNSSGGSNSNGSGNNNNSSSNASDNSGATVIYLSPEKREQRCNGGGGGGSAGNEMNRWSNPVLDRLTGGICSSNSAQPSSQQSHQQQPHPSQQQQQQRRLPAAPVCSSAALRNESYYMATNDNWSPAQMHLMTAHGNTALLIEDDAEPMSPTLPARPHDGQHCNTSSANPSQNLAVGNQGPPINTVPGTPSTSSNFDATYSSQLSLETNSGVEHFSRDALGRRSISEKHHA",Kd (Par complex [3]): 600 nM
binds,"GST-Par-3 PDZ3 (domain or fragment, Drosophila melanogaster, UniProt O96782 616-741, looked up, Par-3 (Bazooka), Drosophila melanogaster, PDZ3, residues 616-741, from pGEX; source: E. coli BL21-DE3, lysate adsorbed to glutathione resin and washed; not shown: GST, N-terminal, kept) HSREELTLHIPVHDTEKAGLGVSVKGKTCSNLNASGSSASSGSNGLMKHDGDLGIFVKNVIHGGAASRDGRLRMNDQLLSVNGVSLRGQNNAEAMETLRRAMVNTPGKHPGTITLLVGRKILRSAS",
binds,"MBP-Par-3 PDZ1-APM ΔPDZ1 (domain or fragment, Drosophila melanogaster, UniProt O96782 393-987, looked up, Par-3 (Bazooka), Drosophila melanogaster, residues 393-987, from pMAL Par-3 393-987-His; source: E. coli BL21-DE3, His-purified) LRGDRNRRQQRDSKVADMVEVATVSPTRKPHAAPVGTSLQVANTRKLGRKIQIMLKKGPNGLGFSVTTRDNPAGAHCPIYIKNILPRGAAIEDGRLKPGDRLLEVDGTPMTGKTQTDVVAILRGMPAGATVRIVVSRQQELAEQADQPAEKSAGVAVAPSVAPPAVPAAAAPAPPIPVQKSSSARSLFTHQQQSQLNESQHFIDAGSESAASNDSLPPSSNSWHSREELTLHIPVHDTEKAGLGVSVKGKTCSNLNASGSSASSGSNGLMKHDGDLGIFVKNVIHGGAASRDGRLRMNDQLLSVNGVSLRGQNNAEAMETLRRAMVNTPGKHPGTITLLVGRKILRSASSSDILDHSNSHSHSHSNSSGGSNSNGSGNNNNSSSNASDNSGATVIYLSPEKREQRCNGGGGGGSAGNEMNRWSNPVLDRLTGGICSSNSAQPSSQQSHQQQPHPSQQQQQQRRLPAAPVCSSAALRNESYYMATNDNWSPAQMHLMTAHGNTALLIEDDAEPMSPTLPARPHDGQHCNTSSANPSQNLAVGNQGPPINTVPGTPSTSSNFDATYSSQLSLETNSGVEHFSRDALGRRSISEKHHA",
,"His-Par-6 CRIB-PDZ (domain or fragment, Drosophila melanogaster, UniProt O97111 130-255, looked up, Par-6, Drosophila melanogaster, CRIB-PDZ, residues 130-255, from pBH; chosen because the methods name GST-Cdc42^Q61L as the solid phase; source: E. coli BL21-DE3, His-purified) KTKAPSISIPHDFRQVSAIIDVDIVPETHRRVRLLKHGSDKPLGFYIRDGTSVRVTASGLEKQPGIFISRLVPGGLAESTGLLAVNDEVIEVNGIEVAGKTLDQVTDMMVANSSNLIITVKPANQR",Kd (GST-Cdc42^Q61L): 2300 nM
binds,"MBP-Par-3 PDZ1-APM ΔPDZ3 (domain or fragment, Drosophila melanogaster, UniProt O96782 309-987, looked up, Par-3 (Bazooka), Drosophila melanogaster, residues 309-987 with 616-741 deleted, from pMAL Par-3 309-987 Δ616-741-His; source: E. coli BL21-DE3, His-purified) DGEMLLIINEYGSPLGLTALPDKEHGGGLLVQHVEPGSRAERGQLRRDDRILEINGIKLIGLTESQVQEQLRRALESSELRVRVLRGDRNRRQQRDSKVADMVEVATVSPTRKPHAAPVGTSLQVANTRKLGRKIQIMLKKGPNGLGFSVTTRDNPAGAHCPIYIKNILPRGAAIEDGRLKPGDRLLEVDGTPMTGKTQTDVVAILRGMPAGATVRIVVSRQQELAEQADQPAEKSAGVAVAPSVAPPAVPAAAAPAPPIPVQKSSSARSLFTHQQQSQLNESQHFIDAGSESAASNDSLPPSSNSWSSDILDHSNSHSHSHSNSSGGSNSNGSGNNNNSSSNASDNSGATVIYLSPEKREQRCNGGGGGGSAGNEMNRWSNPVLDRLTGGICSSNSAQPSSQQSHQQQPHPSQQQQQQRRLPAAPVCSSAALRNESYYMATNDNWSPAQMHLMTAHGNTALLIEDDAEPMSPTLPARPHDGQHCNTSSANPSQNLAVGNQGPPINTVPGTPSTSSNFDATYSSQLSLETNSGVEHFSRDALGRRSISEKHHA",
